Reference: patent US20030091594A1 (University of Pennsylvania, published 2003)

B1: human CCR5 (receptor)
chain: not shown
notes: whole, on cells
B2: human CXCR4 (receptor)
chain: MEGISIYTSDNYTEEMGSGDYDSMKEPCFREENANFNKIFLPTIYSIIFLTGIVGNGLVILVMGYQKKLRSMTDKYRLHLSVADLLFVITLPFWAVDAVANWYFGNFLCKAVHVIYTVNLYSSVLILAFISLDRYLAIVHATNSQRPRKLLAEKVVYVGVWIPALLLTIPDFIFANVSEADDRYICDRFYPNDLWVVVFQFQHIMVGLILPGIVILSCYCIIISKLSHSKGHQKRKALKTTVILILAFFACWLPYYIGISIDSFILLEIIKQGCEFENTVHKWISITEALAFFHCCLNPILYAFLGAKFKTSAQHALTSVSRGSSLKILSKGKRGGHSSVSTESESSSFHSS
notes: whole, on cells

Columns and labels:
[1] = biological target: T1, HIV-1/IIIB (HXBc2) gp120 pre-incubated with soluble CD4 (HIV-1); test: cell-surface binding of 125I-gp120 with sCD4 to 293T cells transfected with CCR5
T1 construct: also called HXB/CD4; HIXB/CD4

[2] = biological target: T1, HIV-1/IIIB (HXBc2) gp120 pre-incubated …; test: 125I-gp120 binding to transfected 293T cells, with sCD4

Binder	binding result [1]	binding result [2]
B1	no binding	
B2		binds
